Results published in patent US20220332804A1 (CSL INNOVATION, published 2022).

Columns and labels:
Assay in all cases: SPR, mAb captured, C2 mutant analyte;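 also: Anti-C2 mAbs captured on goat anti-human IgG Biacore CM5 chips, alanine or serine C2 surface mutants flowed over at 37 °C, double-referenced sensorgrams fitted to a 1:1 binding model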
human C2 T317A = molecular target: T1, human C2 T317A (human, UniProt P06681 21-752)
T1 sequence: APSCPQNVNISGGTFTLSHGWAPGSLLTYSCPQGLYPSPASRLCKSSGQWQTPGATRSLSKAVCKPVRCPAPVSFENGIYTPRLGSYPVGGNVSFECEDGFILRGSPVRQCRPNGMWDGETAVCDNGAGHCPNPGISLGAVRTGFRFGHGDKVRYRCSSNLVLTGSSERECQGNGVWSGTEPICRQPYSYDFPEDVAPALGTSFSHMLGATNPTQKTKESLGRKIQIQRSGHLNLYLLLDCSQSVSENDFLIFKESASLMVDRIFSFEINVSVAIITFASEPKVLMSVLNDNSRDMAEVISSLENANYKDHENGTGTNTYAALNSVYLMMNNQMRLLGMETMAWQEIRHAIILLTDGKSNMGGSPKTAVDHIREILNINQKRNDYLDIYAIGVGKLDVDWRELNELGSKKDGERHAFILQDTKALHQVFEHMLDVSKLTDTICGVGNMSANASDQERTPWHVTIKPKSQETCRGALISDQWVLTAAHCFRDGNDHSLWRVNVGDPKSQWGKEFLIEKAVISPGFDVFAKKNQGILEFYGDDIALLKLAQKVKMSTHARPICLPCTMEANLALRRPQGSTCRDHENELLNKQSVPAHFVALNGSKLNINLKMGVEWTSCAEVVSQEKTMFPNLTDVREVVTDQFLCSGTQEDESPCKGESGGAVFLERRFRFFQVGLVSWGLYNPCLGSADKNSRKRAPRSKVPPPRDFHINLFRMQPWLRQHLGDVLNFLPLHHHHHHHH

human C2 R519A = molecular target: T2, human C2 R519A (human, UniProt P06681 21-752)
T2 sequence: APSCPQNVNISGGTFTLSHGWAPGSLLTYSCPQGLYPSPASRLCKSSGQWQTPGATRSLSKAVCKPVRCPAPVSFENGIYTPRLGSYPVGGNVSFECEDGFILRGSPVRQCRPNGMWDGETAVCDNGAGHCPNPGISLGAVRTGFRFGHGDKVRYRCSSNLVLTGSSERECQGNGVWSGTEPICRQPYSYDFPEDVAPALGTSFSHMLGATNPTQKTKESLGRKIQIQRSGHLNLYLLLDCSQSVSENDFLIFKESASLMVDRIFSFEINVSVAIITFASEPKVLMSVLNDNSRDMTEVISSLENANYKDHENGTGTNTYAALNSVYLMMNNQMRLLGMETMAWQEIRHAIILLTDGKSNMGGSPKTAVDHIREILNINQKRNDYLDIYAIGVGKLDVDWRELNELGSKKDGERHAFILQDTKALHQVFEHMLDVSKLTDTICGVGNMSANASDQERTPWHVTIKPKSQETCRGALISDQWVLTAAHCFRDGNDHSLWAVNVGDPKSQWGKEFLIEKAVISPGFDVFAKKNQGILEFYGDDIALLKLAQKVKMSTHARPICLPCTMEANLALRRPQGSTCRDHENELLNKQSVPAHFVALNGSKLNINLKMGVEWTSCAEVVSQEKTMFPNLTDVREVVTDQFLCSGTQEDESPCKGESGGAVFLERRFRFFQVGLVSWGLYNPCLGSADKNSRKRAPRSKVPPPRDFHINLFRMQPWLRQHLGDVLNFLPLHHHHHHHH

human C2 N268A = molecular target: T3, human C2 N268A (human, UniProt P06681 21-752)
T3 sequence: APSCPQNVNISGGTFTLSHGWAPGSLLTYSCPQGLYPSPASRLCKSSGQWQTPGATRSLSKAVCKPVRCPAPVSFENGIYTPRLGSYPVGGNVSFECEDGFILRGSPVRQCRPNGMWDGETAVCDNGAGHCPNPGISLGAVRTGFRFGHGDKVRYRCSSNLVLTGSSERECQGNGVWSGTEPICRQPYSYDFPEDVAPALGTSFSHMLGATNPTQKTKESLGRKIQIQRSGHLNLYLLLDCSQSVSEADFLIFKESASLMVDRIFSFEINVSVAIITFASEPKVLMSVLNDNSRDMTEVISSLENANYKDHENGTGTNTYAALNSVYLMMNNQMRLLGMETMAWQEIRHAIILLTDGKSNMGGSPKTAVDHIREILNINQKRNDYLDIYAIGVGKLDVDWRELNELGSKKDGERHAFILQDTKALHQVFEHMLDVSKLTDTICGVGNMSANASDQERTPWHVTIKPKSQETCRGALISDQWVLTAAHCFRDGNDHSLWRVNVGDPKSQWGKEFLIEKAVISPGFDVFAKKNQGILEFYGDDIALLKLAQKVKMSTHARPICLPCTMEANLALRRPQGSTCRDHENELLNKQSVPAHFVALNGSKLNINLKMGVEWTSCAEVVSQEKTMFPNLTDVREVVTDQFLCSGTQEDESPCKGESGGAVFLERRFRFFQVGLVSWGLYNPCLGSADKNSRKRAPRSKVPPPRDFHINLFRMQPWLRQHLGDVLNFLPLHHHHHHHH

human C2 K457A = molecular target: T4, human C2 K457A (human, UniProt P06681 21-752)
T4 sequence: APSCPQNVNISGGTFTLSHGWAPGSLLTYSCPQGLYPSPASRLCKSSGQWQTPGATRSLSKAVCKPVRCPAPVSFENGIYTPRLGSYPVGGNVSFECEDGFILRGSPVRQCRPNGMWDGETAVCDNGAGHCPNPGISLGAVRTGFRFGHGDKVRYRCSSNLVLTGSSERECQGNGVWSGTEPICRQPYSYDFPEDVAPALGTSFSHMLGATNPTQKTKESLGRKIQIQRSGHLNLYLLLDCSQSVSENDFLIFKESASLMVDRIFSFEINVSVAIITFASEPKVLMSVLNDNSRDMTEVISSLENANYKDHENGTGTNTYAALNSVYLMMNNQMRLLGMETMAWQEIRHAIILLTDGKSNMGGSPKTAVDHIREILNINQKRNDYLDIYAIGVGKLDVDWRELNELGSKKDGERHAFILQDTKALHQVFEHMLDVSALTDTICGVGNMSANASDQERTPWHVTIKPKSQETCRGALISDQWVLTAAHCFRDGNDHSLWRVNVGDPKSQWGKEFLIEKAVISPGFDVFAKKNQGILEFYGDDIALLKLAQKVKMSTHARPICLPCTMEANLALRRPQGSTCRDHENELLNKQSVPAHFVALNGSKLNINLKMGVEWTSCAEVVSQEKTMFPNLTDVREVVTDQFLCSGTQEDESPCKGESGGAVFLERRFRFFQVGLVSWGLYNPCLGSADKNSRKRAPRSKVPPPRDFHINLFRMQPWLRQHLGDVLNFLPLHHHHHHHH

Kd (human C2 T317A): 27.9 nM
Kd (human C2 R519A): 40 nM
Kd (human C2 N268A): 60.8 nM
Kd (human C2 K457A): 41.8 nM
B1: RF16-214 (antibody, V domains shown)
VH: EVQLLESGGGLVQPGGSLRLSCAASGFTFSWYQMMWVRQAPGKGLEWVSRIYPSGGGTAYADSVKGRFTISRDNSKNTLYLQMNSLRAEDTAVYYCARDAGYGDNWGQGTLVTVSS
VL: QSALTQPPSVSVSPGQTASITCSGDKLGEKYASWYQQKAGQSPVMVIYQDRKRPSGIPERFSGSNSGNTATLTISGTQAMDEADYYCQAWDTRAVVFGGGTKLTVLG
